The assay concerns the target CSA (human, untagged after removal of GST) (human, UniProt Q13216 1-396). Briefly: pull-down.

Chain of CSA (human, untagged after removal of GST) (Q13216 whole entry): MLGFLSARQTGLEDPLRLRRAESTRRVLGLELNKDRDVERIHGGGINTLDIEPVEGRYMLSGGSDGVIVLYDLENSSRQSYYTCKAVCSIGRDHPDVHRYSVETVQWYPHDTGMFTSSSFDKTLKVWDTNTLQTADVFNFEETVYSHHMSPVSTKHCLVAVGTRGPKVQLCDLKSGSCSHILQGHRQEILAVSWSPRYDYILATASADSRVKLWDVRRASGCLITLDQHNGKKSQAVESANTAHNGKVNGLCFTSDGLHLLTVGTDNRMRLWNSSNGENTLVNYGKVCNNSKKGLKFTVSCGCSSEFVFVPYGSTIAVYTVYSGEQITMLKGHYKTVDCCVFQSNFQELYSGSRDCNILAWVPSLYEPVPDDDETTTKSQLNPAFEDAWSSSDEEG

B1: His-STK19 (human STK19S, 254aa isoform) (natural protein, UniProt P49842 1-254, looked up)
chain: MSWKRHHLIPETFGVKRRRKRGPVESDPLRGEPGSARAAVSELMQLFPRGLFEDALPPIVLRSQVYSLVPDRTVADRQLKELQEQGEIRIVQLGFDLDAHGIIFTEDYRTRVLKACDGRPYAGAVQKFLASVLPACGDLSFQQDQMTQTFGFRDSEITHLVNAGVLTVRDAGSWWLAVPGAGRFIKYFVKGRQAVLSMVRKAKYRELLLSELLGRRAPVVVRLGLTYHVHDLIGAQLVDCISTTSGTLLRLPET
As to B1, the binding result is “binds”.
